Three proteins from paper PMC3216493 (Scientific Reports, 2011) can be followed below.

This data set deals with the molecule itself. Description: native gel or EMSA. A general note: In EMSA bound probe runs differently from free probe, usually more slowly.

B1: HBc149H6 (contiguous truncated HBV core protein, aa 1-149, with C terminal His6) (domain or fragment)
chain: MDIDPYKEFGATVELLSFLPSDFFPSVRDLLDTASALYREALESPEHCSPHHTALRQAILCWGELMTLATWVGVNLEDPASRDLVVSYVNTNMGLKFRQLLWFHISCLTFGRETVIEYLVSFGVWIRTPPAYRPPNAPILSTLPETTVV
As for B1, the binding result is “binds”.

B2: SplitCore183 (split subunit of coreN plus coreC183) (complex)
chain 1: MDIDPYKEFGATVELLSFLPSDFFPSVRDLLDTASALYREALESPEHCSPHHTALRQAILCWGELMTLATWVGVNLEDP
chain 2: MASRDLVVSYVNTNMGLKFRQLLWFHISCLTFGRETVIEYLVSFGVWIRTPPAYRPPNAPILSTLPETTVVRRRGRSPRRRTPSPRRRRSQSPRRRRSQSRESQC
Consider B2, for which the binding result is “binds”.

B3: SplitCore149 (split subunit of coreN plus coreC149) (complex)
chain 1: MDIDPYKEFGATVELLSFLPSDFFPSVRDLLDTASALYREALESPEHCSPHHTALRQAILCWGELMTLATWVGVNLEDP
chain 2: MASRDLVVSYVNTNMGLKFRQLLWFHISCLTFGRETVIEYLVSFGVWIRTPPAYRPPNAPILSTLPETTVV
On to B3, for which the binding result is “binds”.
